Experimental data published in publication PMC10681739, “High-throughput data and modeling reveal insights into the mechanisms of cooperative DNA-binding by transcription factor proteins”.

T1: ETS1 (Homo sapiens, UniProt P14921)
T1 sequence: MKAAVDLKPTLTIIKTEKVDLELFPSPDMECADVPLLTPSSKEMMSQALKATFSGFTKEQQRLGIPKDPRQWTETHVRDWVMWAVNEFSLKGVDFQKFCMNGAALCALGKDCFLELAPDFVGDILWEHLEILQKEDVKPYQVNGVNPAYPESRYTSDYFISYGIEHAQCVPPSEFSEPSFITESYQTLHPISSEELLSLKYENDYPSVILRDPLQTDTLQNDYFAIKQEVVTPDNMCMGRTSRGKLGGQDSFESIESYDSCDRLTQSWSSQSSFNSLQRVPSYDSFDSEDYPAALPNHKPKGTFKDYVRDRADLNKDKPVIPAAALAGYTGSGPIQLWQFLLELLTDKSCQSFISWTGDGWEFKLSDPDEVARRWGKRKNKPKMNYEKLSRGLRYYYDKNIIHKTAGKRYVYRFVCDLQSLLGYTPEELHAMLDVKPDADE


Target: T1, ETS1
Experiment: gcPBM; 1 nM ETS1
Conditions: tags: N-terminal GST (pDEST15), kept (PMC6008103); label: surface-attached array probe

Row | Binder | binding signal
1 | Table S2 C row 139 (dsDNA) DNA 1: GGAGCTGCTCCAGGCTGCGGTGGGATCAAAGCTACC DNA 2: GGTAGCTTTGATCCCACCGCAGCCTGGAGCAGCTCC | 316 PBM fluorescence, median of replicate spots
2 | Table S2 B row 1617 (dsDNA) DNA 1: ACCACCCCCAGAGACAAACTCACATCCTCTCCCTAG DNA 2: CTAGGGAGAGGATGTGAGTTTGTCTCTGGGGGTGGT | 1010 PBM fluorescence, median of replicate spots
3 | Table S2 C row 143 (dsDNA) DNA 1: CGGCCCCGCTGAGGGGCCGCAAGGACGAGGACGCCT DNA 2: AGGCGTCCTCGTCCTTGCGGCCCCTCAGCGGGGCCG | 300 PBM fluorescence, median of replicate spots
4 | Table S2 B row 2753 (dsDNA) DNA 1: AGTTGCTTCCTAATCCTGCTGAGCCATTAGCCCCAA DNA 2: TTGGGGCTAATGGCTCAGCAGGATTAGGAAGCAACT | 1170 PBM fluorescence, median of replicate spots
5 | Table S2 C row 199 (dsDNA) DNA 1: AGCTCAGGCACCAGCTGAGGTTTGGCATTTGCTGGC DNA 2: GCCAGCAAATGCCAAACCTCAGCTGGTGCCTGAGCT | 296 PBM fluorescence, median of replicate spots
6 | Table S2 B row 3361 (dsDNA) DNA 1: GAACTACGTTTCCCGGCATGCACTGCAGGCCGCCGG DNA 2: CCGGCGGCCTGCAGTGCATGCCGGGAAACGTAGTTC | 787 PBM fluorescence, median of replicate spots
7 | Table S2 B row 1508 (dsDNA) DNA 1: GCTCCCTTCCTGAGCCTCTGCTGGCCTCACCAGAGG DNA 2: CCTCTGGTGAGGCCAGCAGAGGCTCAGGAAGGGAGC | 849 PBM fluorescence, median of replicate spots
8 | Table S2 B row 2389 (dsDNA) DNA 1: TCTGCACATCCGAGAAGCCTCCGTGCTTTGCTGCCA DNA 2: TGGCAGCAAAGCACGGAGGCTTCTCGGATGTGCAGA | 803 PBM fluorescence, median of replicate spots
9 | Table S2 C row 122 (dsDNA) DNA 1: AGAGACAGTAGCAGCCGCGGTGACTGGCGGCCTCCT DNA 2: AGGAGGCCGCCAGTCACCGCGGCTGCTACTGTCTCT | 296 PBM fluorescence, median of replicate spots
10 | Table S2 B row 411 (dsDNA) DNA 1: CGCCCTCCGGAAGAGAGGGCGGACAGCGCCCGCGCC DNA 2: GGCGCGGGCGCTGTCCGCCCTCTCTTCCGGAGGGCG | 1330 PBM fluorescence, median of replicate spots
11 | Table S2 B row 2750 (dsDNA) DNA 1: CTAGTCTGTTTCCTCATCTGCCGCCTGCACGCCCGC DNA 2: GCGGGCGTGCAGGCGGCAGATGAGGAAACAGACTAG | 985 PBM fluorescence, median of replicate spots
12 | Table S2 B row 3719 (dsDNA) DNA 1: GACCTGGGCAGGAAGAGCGGCATTTGGGGCCCCCTG DNA 2: CAGGGGGCCCCAAATGCCGCTCTTCCTGCCCAGGTC | 1120 PBM fluorescence, median of replicate spots
13 | Table S2 B row 2956 (dsDNA) DNA 1: CTCTGAAGGAAGTGATGTTAGACGGCTGTAGGTGGT DNA 2: ACCACCTACAGCCGTCTAACATCACTTCCTTCAGAG | 910 PBM fluorescence, median of replicate spots
14 | Table S2 B row 234 (dsDNA) DNA 1: GGGGGAATGTAGGAAGTATCATCGCCTACAAGAAAG DNA 2: CTTTCTTGTAGGCGATGATACTTCCTACATTCCCCC | 948 PBM fluorescence, median of replicate spots
15 | Table S2 B row 3871 (dsDNA) DNA 1: CCTGAGAGATCCGGCGCGCGTCTTCCACCAAAATGC DNA 2: GCATTTTGGTGGAAGACGCGCGCCGGATCTCTCAGG | 1260 PBM fluorescence, median of replicate spots
16 | Table S2 B row 3799 (dsDNA) DNA 1: GCAAAGATACATCCTTCTCCCCAGAGACTAAGTTTC DNA 2: GAAACTTAGTCTCTGGGGAGAAGGATGTATCTTTGC | 1150 PBM fluorescence, median of replicate spots
17 | Table S2 B row 3245 (dsDNA) DNA 1: GCGCCCGGAAGGAAGGCTGGGGTAGGTTGTAGTTTC DNA 2: GAAACTACAACCTACCCCAGCCTTCCTTCCGGGCGC | 1030 PBM fluorescence, median of replicate spots
18 | Table S2 B row 3926 (dsDNA) DNA 1: GCTGTCCGTTTCCGAGATGTTAATGCGAGGTCTTGC DNA 2: GCAAGACCTCGCATTAACATCTCGGAAACGGACAGC | 1060 PBM fluorescence, median of replicate spots
19 | Table S2 B row 1479 (dsDNA) DNA 1: CAGATTCCCGGAAAGGGGGACATGTAGCCGCCAAAG DNA 2: CTTTGGCGGCTACATGTCCCCCTTTCCGGGAATCTG | 1360 PBM fluorescence, median of replicate spots
20 | Table S2 B row 4028 (dsDNA) DNA 1: GCCTGAAGGACTTCCGGGAACCGAAAAGCACGGTGT DNA 2: ACACCGTGCTTTTCGGTTCCCGGAAGTCCTTCAGGC | 19300 PBM fluorescence, median of replicate spots
21 | Table S2 B row 2231 (dsDNA) DNA 1: GCGCCCTCCAGGAAACGCCGCGATTTACTGTCTGCC DNA 2: GGCAGACAGTAAATCGCGGCGTTTCCTGGAGGGCGC | 1190 PBM fluorescence, median of replicate spots

Row | Binder | binding signal
22 | Table S2 C row 8 (dsDNA) DNA 1: CCACCCGGGGCCTGGACCGCACCACGGTCACTGGCG DNA 2: CGCCAGTGACCGTGGTGCGGTCCAGGCCCCGGGTGG | 316 PBM fluorescence, median of replicate spots
23 | Table S2 B row 1799 (dsDNA) DNA 1: AGCGGCCGAAGGAAGTGACGTTTGGGGCAGTAAGGC DNA 2: GCCTTACTGCCCCAAACGTCACTTCCTTCGGCCGCT | 1090 PBM fluorescence, median of replicate spots
24 | Table S2 C row 98 (dsDNA) DNA 1: AAAACCATCTTTAGGACCGCGGCCCCTTTAAGCGGC DNA 2: GCCGCTTAAAGGGGCCGCGGTCCTAAAGATGGTTTT | 284 PBM fluorescence, median of replicate spots
25 | Table S2 B row 1447 (dsDNA) DNA 1: GCAGAAGGAAGTGTGGCTTGGCGCCGTGGCTCACAC DNA 2: GTGTGAGCCACGGCGCCAAGCCACACTTCCTTCTGC | 817 PBM fluorescence, median of replicate spots
26 | Table S2 B row 2233 (dsDNA) DNA 1: GCGCCATTTCCGCTGCGCAAGGCACCTCAGGCCCTG DNA 2: CAGGGCCTGAGGTGCCTTGCGCAGCGGAAATGGCGC | 18700 PBM fluorescence, median of replicate spots
27 | Table S2 C row 51 (dsDNA) DNA 1: CTTGGGAGTCCCTGCCGCGGTGACTCCCTGGGAGCT DNA 2: AGCTCCCAGGGAGTCACCGCGGCAGGGACTCCCAAG | 261 PBM fluorescence, median of replicate spots
28 | Table S2 C row 73 (dsDNA) DNA 1: GTGGCACCCTCAAGGGCCACAACGGCTGGGTAACCC DNA 2: GGGTTACCCAGCCGTTGTGGCCCTTGAGGGTGCCAC | 312 PBM fluorescence, median of replicate spots
29 | Table S2 B row 1484 (dsDNA) DNA 1: CCCGGAAACTCAACTGCCCACTGCAGCGCCCGCCAT DNA 2: ATGGCGGGCGCTGCAGTGGGCAGTTGAGTTTCCGGG | 830 PBM fluorescence, median of replicate spots
30 | Table S2 C row 62 (dsDNA) DNA 1: GAGCATCTTGAGGTCTGTGGTTCAGCTACCAGCCCC DNA 2: GGGGCTGGTAGCTGAACCACAGACCTCAAGATGCTC | 296 PBM fluorescence, median of replicate spots
31 | Table S2 B row 3244 (dsDNA) DNA 1: CCCGCTGTCACTTCCTGCTTCCCTCCCGCGCACGTG DNA 2: CACGTGCGCGGGAGGGAAGCAGGAAGTGACAGCGGG | 19700 PBM fluorescence, median of replicate spots
32 | Table S2 B row 1867 (dsDNA) DNA 1: TCAGGAAGTGGTGTGACCAGCATGTGAACAGCGGCA DNA 2: TGCCGCTGTTCACATGCTGGTCACACCACTTCCTGA | 936 PBM fluorescence, median of replicate spots
33 | Table S2 B row 935 (dsDNA) DNA 1: CAGTGGCAGTAGCCGTTTGGCCCTTCCTGCCCTGGG DNA 2: CCCAGGGCAGGAAGGGCCAAACGGCTACTGCCACTG | 882 PBM fluorescence, median of replicate spots
34 | Table S2 B row 2446 (dsDNA) DNA 1: GGAACGGAGGCGGAAGGGGCCCTTCGGCGACGACGT DNA 2: ACGTCGTCGCCGAAGGGCCCCTTCCGCCTCCGTTCC | 869 PBM fluorescence, median of replicate spots
35 | Table S2 C row 16 (dsDNA) DNA 1: AAAAGCCCATGGGCACCCACAGCTTTGTCACAGTGC DNA 2: GCACTGTGACAAAGCTGTGGGTGCCCATGGGCTTTT | 288 PBM fluorescence, median of replicate spots
36 | Table S2 C row 184 (dsDNA) DNA 1: CCAGCTAAGCGAGGGGCCGCAGGGAGCGCGGCCTCG DNA 2: CGAGGCCGCGCTCCCTGCGGCCCCTCGCTTAGCTGG | 274 PBM fluorescence, median of replicate spots
37 | Table S2 C row 25 (dsDNA) DNA 1: CCAGCCCGGCCTCGGACCGCGGCACCCCTCCTGGCC DNA 2: GGCCAGGAGGGGTGCCGCGGTCCGAGGCCGGGCTGG | 312 PBM fluorescence, median of replicate spots
38 | Table S2 C row 53 (dsDNA) DNA 1: CCTGGGCTGCAGGCACCCACAGTCCAGAGGCTCAAA DNA 2: TTTGAGCCTCTGGACTGTGGGTGCCTGCAGCCCAGG | 318 PBM fluorescence, median of replicate spots
39 | Table S2 C row 106 (dsDNA) DNA 1: ATTCACTCATCCCTCACCACAGCCAGCTGCTTGAGA DNA 2: TCTCAAGCAGCTGGCTGTGGTGAGGGATGAGTGAAT | 320 PBM fluorescence, median of replicate spots
40 | Table S2 B row 3605 (dsDNA) DNA 1: GGGCTTCCCGGGTACAAAAATGGCTGTCGCTAGCGA DNA 2: TCGCTAGCGACAGCCATTTTTGTACCCGGGAAGCCC | 1230 PBM fluorescence, median of replicate spots
41 | Table S2 B row 126 (dsDNA) DNA 1: TGGCGCTTCCTGTCGCTACCCCAGCGGCCCAGGGCC DNA 2: GGCCCTGGGCCGCTGGGGTAGCGACAGGAAGCGCCA | 18100 PBM fluorescence, median of replicate spots
42 | Table S2 B row 40 (dsDNA) DNA 1: TTGCGTCATTTCCGAGAGACTTTCGCGCCGCTGTTT DNA 2: AAACAGCGGCGCGAAAGTCTCTCGGAAATGACGCAA | 1300 PBM fluorescence, median of replicate spots
